{
  "source": "patent US20240327495A1",
  "about": "(OXFORD UNIVERSITY INNOVATION, published 2024)",
  "binders": {"B1": {"name": "GT01 R63A (designed binder, not shown: small tags and cut ends)", "chain": "DFVLDNEGNPLENGGTYYILSDYGRQLFGGIRAAPTGNERCPLTVVQSLFRNHRDKGIGTIISSPYAIRFIAEGHPLSLKFDSFAVIMLCVGIPTEWSVVEDLPEGPAVKIGENKDAMDGWFRLERVSDDEFNNYKLVFCPQQAEDDKCGDIGISIDHDDGTRRLVVSKNKPLVVQFQKLDKESL"}},
  "biological_target": "C. difficile toxin B glucosyltransferase domain (GTD, residues 2-543) (Clostridium difficile, UniProt P18177 2-543)",
  "sequence (P18177 2-543 limits assumed)": "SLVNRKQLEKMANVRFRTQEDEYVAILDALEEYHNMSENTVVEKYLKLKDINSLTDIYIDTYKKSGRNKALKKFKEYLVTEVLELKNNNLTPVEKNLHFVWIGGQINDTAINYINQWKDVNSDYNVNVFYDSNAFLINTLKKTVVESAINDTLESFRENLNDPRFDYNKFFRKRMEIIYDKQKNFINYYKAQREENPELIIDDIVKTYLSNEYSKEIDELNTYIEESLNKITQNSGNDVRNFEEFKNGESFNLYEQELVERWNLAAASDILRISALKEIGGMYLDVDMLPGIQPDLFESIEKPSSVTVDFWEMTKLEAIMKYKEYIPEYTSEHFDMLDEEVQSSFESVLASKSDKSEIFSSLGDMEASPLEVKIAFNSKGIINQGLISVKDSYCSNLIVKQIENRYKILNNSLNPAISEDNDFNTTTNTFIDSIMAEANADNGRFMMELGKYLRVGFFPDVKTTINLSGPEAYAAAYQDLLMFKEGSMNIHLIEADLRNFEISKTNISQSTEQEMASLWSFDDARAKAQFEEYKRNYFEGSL",
  "data": [
    {"binder": "B1", "values": [
      {"measurement": "EC50 (read off the curve)", "value": "~7", "unit": "nM"}
    ]}
  ]
}
